Assays:
S. aureus 6445 = experiment: MIC assay; assay type: cell-based, Staphylococcus aureus; settings: biological duplicates
MRSA strain 3425-3 = experiment: MIC assay; assay type: cell-based, Staphylococcus aureus; settings: biological duplicates
Method: (§1) The MICs of wild-type lysostaphin and its variants were determined by adding 2-fold serial dilutions of enzymes into wells of a polypropylene 96-well plate (Costar 3879) containing ˜40,000 S. aureus SA113 (or S. aureus 6445, 3425-1, 3425-3) cells in Muller Hinton broth (BD) supplemented with 2% NaCl and 0.1% bovine serum albumin, yielding a total volume of 100 μl. Plates were grown overnight at 37° C. with shaking at 900 rpm on an Orbit P4 orbital shaker (Labnet; Edison, N.J.). […] The assay was performed in triplicate for each enzyme.

S. aureus SA113 [1] = experiment: MIC assay; assay type: cell-based, Staphylococcus aureus; settings: for MIC Strain SA113: biological duplicates; for MIC: S. aureus SA113, purified enzyme
Method: as §1

S. aureus 3425-1 = experiment: MIC assay; assay type: cell-based, Staphylococcus aureus; settings: biological duplicates
Method: as §1

[2] = Thermostability by differential scanning fluorimetry; assay type: physicochemical
Method: The relative thermostability of the lysostaphin variants was determined by differential scanning fluorimetry, as previously described (Niesen, et al. (2007) Nat. Protocols 2:2212-2221). Proteins and SYPRO Orange were diluted in PBS (final concentrations of 100 μg/ml and 5× in 20 μl reaction volume, respectively), and fluorescence was quantified at 1-degree increments from 25 to 94° C. using an Applied Biosystems ABI 7500 fast real-time PCR system. The reactions were performed using PCR Plates for Fast Thermocyclers (VWR; Radnor, Pa.). Fluorescence was quantified using the preset TAMRA parameters. Melting temperatures were determined by data analysis with the ‘DSF Analysis v3.0.xlsx’ EXCEL sheet and GraphPad Prism v.6.02 software.

S. aureus cells [3] = experiment: Lytic assay using purified protein (SYTOX kinetic assay); assay type: cell-based, Staphylococcus aureus; settings: for % WT Lytic Rate: biological duplicates; for % Wild-Type Activity: 200 ng purified enzyme
Method: (§2) S. aureus cells were grown either to mid-log or to saturation in tryptic soy broth (TSB) at 37° C. with shaking. The cells were harvested by centrifugation and washed once in phosphate buffered saline (PBS: 2.7 mM KCl, 1.5 mM KH2PO4, 8.9 mM Na2HPO4, 136.9 mM NaCl, pH 7.4). The assay was performed in 96-well, black, clear bottom plates from Greiner Bio-One (Monroe, N.C.). The final (250 μl) reaction was composed of 10 μl of P. pastoris culture supernatant, S. aureus cells at OD600=1.5, and 5 μM SYTOX Green (Thermo Fisher Scientific; Waltham, Mass.), all in PBS. Data were collected using SPECTRAMAX GEMINI Fluorescence Microplate Reader (Molecular Devices; Sunnyvale, Calif.) using an excitation/emission of 504/523 nm, and rates were determined from the slope of the steepest linear portion of the trace. Each assay was performed with 500 ng of commercially-sourced lysostaphin (ssLys) as an internal control.
The activity of purified lysostaphin variants was examined using the SYTOX kinetic assay as previously described in Chapter 2, Section 3.2.6. 200 ng of purified enzyme (instead of culture supernatant) was used in each reaction.

S. aureus cells [4] = experiment: Lytic assay of culture supernatant (SYTOX Green); assay type: cell-based, Staphylococcus aureus; settings: single point mutants
Method: as §2
The amount of protein used in each assay was estimated from SDS-PAGE gels. Briefly, 10 μl of culture supernatant was run on a SDS-PAGE gel together with standards of 0.5 μg, 0.7 μg, and 1 μg of ssLys in separate lanes. The gel was stained using GELCODE Blue Stain Reagent from Thermo Fisher Scientific (Carlsbad, Calif.) and bands quantified using Quantity Tools from Image Lab 5.1 software (Bio-Rad Laboratories; Hercules, Calif.).

S. aureus SA113 [5] = experiment: MIC assay using P. pastoris culture supernatant (MIC50); assay type: cell-based, Staphylococcus aureus; settings: aglycosylated mutants
Method: Lysostaphin MIC was determined essentially as described (Zhao, et al. (2014) supra). Briefly, 100 μl aliquots of P. pastoris culture supernatant were serially diluted in TSB. Each well was inoculated with 100 μl of ˜10^6 CFU/ml S. aureus SA113 in TSB. Microplates were incubated at 37° C. for 24 hours. […] MIC50 was quantified by measuring light scattering at 650 nm in a microplate reader.

pooled splenocytes [6] = settings: mouse, in vivo
MRSA strain USA400 [7] = experiment: Efficacy of F12 in recurrent systemic MRSA infections; assay type: in vivo, DR4 HLA transgenic mice; settings: for # Treated Mice Surviving: 1×10^9 MRSA USA400 i.p., 500 μg enzyme 1 hour later
Method: In a similar set of experiments, the immunogenicity and efficacy of variant F12 was compared to wild-type LST in the absence of adjuvant using DR4 HLA transgenic mice. At week 0, mice were challenged with an intraperitoneal injection of 2×10^8 MRSA strain USA400, and 1 hour later the mice were treated with 500 μg wild-type LST or 500 μg variant F12, given as a single bolus subcutaneous injection. Subsequently, mice were challenged weekly with an intraperitoneal injection of 1×10^9 MRSA strain USA400, and treated as above. Antibody titers were measured weekly beginning at week 2. […] Variant F12 rescued all mice from four recurrent, systemic, MRSA infections (Table 24). The substantially lower antibody titers elicited by variant F12 indicate that this variant is […] than wild-type LST.

MRSA strain USA400 [8] = experiment: In vitro inhibitory activity (MIC); assay type: cell-based, Staphylococcus aureus
Excerpt: F11, P12 and F13 were screened for in vitro inhibitory activity against MRSA strain USA400 (FIG. 7).

pooled splenocytes [9] = experiment: Transgenic DR4 murine immunogenicity study (memory response, splenocyte proliferation); assay type: in vivo; settings: wild-type LST primed mice, 100 μg rechallenge
Method: Twelve female 6-8 week old DR4 transgenic mice (Abb Knockout/Transgenic HLA-DR4; B6.129S2-H2-Ab1tm1GruTg(HLA-DRA/H2-Ea,HLA-DRB1*0401/H2-Eb)1Kito; Taconic Farms, Germantown, N.Y.) were divided into four groups of three each and immunized with 50 μl subcutaneous injections of wild-type LST using one of the following four schemes: (i) initial immunization with 100 μg enzyme in CFA, followed by 100 μg boosts in incomplete Freund's adjuvant (IFA) on days 14 and 28; (ii) initial immunization with 20 μg enzyme in CFA, followed by 20 μg boosts in IFA on days 14 and 28; (iii) initial immunization with 100 μg enzyme in PBS buffer, followed by 100 μg boosts in PBS buffer on days 7, 14, 21 and 28; (iv) initial immunization with 20 μg enzyme in PBS buffer, followed by 20 μg boosts in PBS buffer on days 7, 14, 21 and 28. Serum IgG antibody titers against wild-type LST were measured on days 13, 20, 27, 34, and 62. […] Mice were housed without further manipulation until week 23 of the study, at which time serum IgG antibody titers were again measured and mice were divided into two experimental arms having equivalent average antibody titers. Note that during the week 9 to week 23 recovery period, two mice (the lowest titer 100 μg no adjuvant and one of the high titer 100 μg adjuvant) began suffering hair loss, weight loss, and reduced mobility and were sacrificed as per the IACUC approved protocol. […]

Molecule: Commercial: Commercial lysostaphin purchased from Sigma, E. coli-produced
- MIC Strain 6445 (S. aureus 6445): 0.03 µg/mL
- MIC Strain 3425-3 (MRSA strain 3425-3): 0.03 µg/mL
- MIC Strain SA113 (S. aureus SA113 [1]): 0.03 µg/mL
- MIC Strain 3425-1 (S. aureus 3425-1): 0.04 µg/mL
- Tm ([2]; biological duplicates): 47.3 °C
- % WT Lytic Rate (S. aureus cells [3]): 60 ± 20%

Molecule: Phe38Gly
- activity, % of the wild-type activity (S. aureus cells [4]): 69%

Molecule: Ser124Tyr
- activity, % of the wild-type activity (S. aureus cells [4]): 16%

Molecule: Thr127Ala
- activity compared to the wild-type lysostaphin (S. aureus SA113 [5]): equivalent activity

Molecule: Ser126Pro: aglycosylated lysostaphin mutant Ser126Pro, backbone of the designs
- activity compared to the wild-type lysostaphin (S. aureus SA113 [5]): equivalent activity

B1: Flex 9: lysostaphin variant N12G, I41E, L83M, K95E, I99Q, N121G, S122D, S124G (protein, UniProt P10547 248-493, looked up, variant N12G I41E L83M K95E I99Q N121G S122D S124G)
Lysostaphin: AATHEHSAQWLGNYKKGYGYGPYPLGINGGMHYGVDFFMNEGTPVKAISSGKIVEAGWSNYGGGNQIGLIENDGVHRQWYMHMSKYNVKVGDYVEAGQQIGWSGSTGYSTAPHLHFQRMVGDFGNSTAQDPMPFLKSAGYGKAGGTVTPTPNTGWKTNKYGTLYKSESASFTPNTDIITRTTGPFRSMPQSGVLKAGQTIHYDEVMKQDGHVWVGYTGNSGQRIYLPVRTWNKSTNTLGVLWGTIK
- MIC Strain 6445 (S. aureus 6445): 0.13 µg/mL
- MIC Strain 3425-3 (MRSA strain 3425-3): 0.2 µg/mL
- MIC (S. aureus SA113 [1]): 0.1250 µg/mL
- concentration preventing outgrowth (S. aureus SA113 [1]; all four strains (SA113, 6445, 3425-1, 3425-3)): ≤ 200 ng/mL
- MIC Strain SA113 (S. aureus SA113 [1]): 0.04 µg/mL
- MIC Strain 3425-1 (S. aureus 3425-1): 0.2 µg/mL
- Tm ([2]; SYPRO Orange, PBS): 53.0 °C
- Tm ([2]; biological duplicates): 52.8 °C
- reduced proliferative response relative to wild-type group (pooled splenocytes [6]): 65%
- % Wild-Type Activity (S. aureus cells [3]): 57%
- % WT Lytic Rate (S. aureus cells [3]): 60 ± 20%

B2: F12: variant combining cell wall binding domain mutations with Flex 9 (or derivative) catalytic domain (Table 22) (protein)
chain: AATHEHSAQWLGNYKKGYGYGPYPLGINGGMHYGVDFFMNEGTPVKAISSGKIVEAGWSNYGGGNQIGLIENDGVHRQWYMHMSKYNVKVGDYVKAGQQIGWSGSTGYSTAPHLHFQRMVGDFGNPTAQDPMPFLKSAGYGKAGGTVTPTPNTGWKTNKHGTLYKNESGSFTPNTDIITRTTGPFTSMPQSGVLKAGQTIHYDEVMKQDGHVWVGYTGNSGQRIYLPVRTWQKSTDTLGVLWGTIK
- recurrent systemic MRSA infections from which mice were rescued (MRSA strain USA400 [7]; 500 μg s.c., weekly challenges, no adjuvant): four
- # Treated Mice Surviving (MRSA strain USA400 [7]; Week 1): 9
- # Treated Mice Surviving (MRSA strain USA400 [7]; Week 2): 8
- # Treated Mice Surviving (MRSA strain USA400 [7]; Week 3): 7
- # Treated Mice Surviving (MRSA strain USA400 [7]; Week 4): 6
- MIC activity relative to wild-type LST (MRSA strain USA400 [8]): 25%
- retained original MIC activity after heating (MRSA strain USA400 [8]; 50° C. for 1 hour prior to assay): 50%

B3: Flex 5: lysostaphin variant K46H, I99Q, N121G, S122D (protein, UniProt P10547 248-493, looked up, variant K46H I99Q N121G S122D)
Lysostaphin: AATHEHSAQWLNNYKKGYGYGPYPLGINGGMHYGVDFFMNIGTPVHAISSGKIVEAGWSNYGGGNQIGLIENDGVHRQWYMHLSKYNVKVGDYVKAGQQIGWSGSTGYSTAPHLHFQRMVGDFSNSTAQDPMPFLKSAGYGKAGGTVTPTPNTGWKTNKYGTLYKSESASFTPNTDIITRTTGPFRSMPQSGVLKAGQTIHYDEVMKQDGHVWVGYTGNSGQRIYLPVRTWNKSTNTLGVLWGTIK
- MIC Strain 6445 (S. aureus 6445): 0.06 µg/mL
- MIC Strain 3425-3 (MRSA strain 3425-3): 0.05 µg/mL
- MIC (S. aureus SA113 [1]): 0.1042 µg/mL
- MIC Strain SA113 (S. aureus SA113 [1]): 0.02 µg/mL
- MIC Strain 3425-1 (S. aureus 3425-1): 0.11 µg/mL
- proliferation of pooled splenocytes (pooled splenocytes [9]): at or below background levels
- Tm ([2]; SYPRO Orange, PBS): 55.7 °C
- Tm ([2]; biological duplicates): 55.8 °C
- reduced proliferative response relative to wild-type group (pooled splenocytes [6]): 50%
- % Wild-Type Activity (S. aureus cells [3]): 61%
- % WT Lytic Rate (S. aureus cells [3]): 70 ± 30%
